Earlier results, collected in patent publication US10023622B2, “Method of immunization for reducing toxic damaged caused by oligomeric form of the amyloid-beta protein with stable amyloid beta monomers and oligomers” (ALZINOVA AB, priority 2008, dated 2018).

Details: oxidized derivatives (cystines)

Fibrillation of oxidized disulphide mutants, all fibrillate:
F19C/A30C: previously published Aβ peptide disulphide mutant (Wetzel et al.)
F19C/I32C: previously published Aβ peptide disulphide mutant (Wetzel et al.)
F19C/L34C: previously published Aβ peptide disulphide mutant (Wetzel et al.)
L17C/L34C: previously published Aβ peptide disulfide mutant (Shivaprasad and Wetzel)
L17C/M35C: previously published Aβ peptide disulfide mutant (Shivaprasad and Wetzel)
V18C/L34C: previously published Aβ peptide disulphide mutant (Wetzel et al.)
